According to patent publication US20260125454A1 (SHANGHAI JUNSHI BIOSCIENCES, published 2026):
Positions count from the first letter of the chain named.

Molecular target: T1, Biotin-huCGRPaSA (human, not fully specified; biotin (position not given))
T1 construct: exact construct ('aSA') not explained; also called Biotin CGRPaSA; full-length (1-37) CGRP
T1 peptide: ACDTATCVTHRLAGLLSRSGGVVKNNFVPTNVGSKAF
Assay: ELISA, supernatant; relative to chimeric C245
How it was run: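 Plates coated with biotin-CGRPaSA at 1.0 μg/mL (90 min, 37°C) and blocked with 2% BSA. Humanized antibodies and chimeric C245 reference, 2.5-fold serial dilutions from 1000 ng/mL, bound 60 min at 37°C. Detection by HRP anti-human IgG (Fc), TMB 15 min, read at 450/620 nm.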

B1: hu67 (antibody, V domains shown)
VH: QVQLVQSGSELKKPGASVKVSCKASGYTFTDFNMHWVRQAPGQGLEWMGYIYPYNGDVVYNQNFTNRFVLSVDSSSSTAYLQISSLKAEDTAVYYCAREGLGGYWGQGTLVTVSS
VL: DIVLTQSPASLAVSPGQRATITCKASQNIDYDGYAYLNWYQQKPGQPPKVLIYSVFNLESGVPARFSGSGSGTDFTLTINPVEADDTANYYCQQSNEFPYTFGQGTKLEIK
notes: 1F5 HC-4/1A2 LC2-2
Relative binding activity, %: 115%

B2: hu68 (antibody, V domains shown)
VH: B1 VH
VL: EIVLTQSPATLSLSPGERATLSCKASQNIDYDGYAYLNWYQQKPGQAPRVLIYSVFNLESGIPARFSGSGSGTDFTLTISSLEPEDFAVYYCQQSNEFPYTFGQGTKLEIK
notes: 1F5 HC-4/1A2 LC2-3
Relative binding activity, %: 104%

B3: hu70 (antibody, V domains shown)
VH: B1 VH
VL: B2 VL with Y31F, L37M, N96H, F98V
notes: 1F5 HC-4/1F5 LC1-1
Relative binding activity, %: 116%

B4: hu72 (antibody, V domains shown)
VH: B1 VH
VL: B1 VL with Y31F, L37M, N96H, F98V
notes: 1F5 HC-4/1F5 LC1-3
Relative binding activity, %: 115%

B5: hu78 (antibody, V domains shown)
VH: B1 VH
VL: DIQLTQSPSSLSASVGDRVTITCKASQNIDYGGYSYMNWYQQKPGKAPKVLIYSVFNLESGVPSRFSGSGSGTDFTLTISSLQPEDFATYYCQQSNEAPYTFGQGTKLEIK
notes: 1F5 HC-4/3H10 LC2-2
Relative binding activity, %: 64%

B6: hu69 (antibody, V domains shown)
VH: B1 VH
VL: B5 VL with S10F, G32D, S35A, M37L, D74E, A98F
notes: 1F5 HC-4/1A2 LC2-4
Relative binding activity, %: 102%

B7: hu73 (antibody, V domains shown)
VH: B1 VH
VL: DIVLTQSPDSLAVSLGERATINCKASQNIDFDGYAYMNWYQHKPGQPPKVLIYSVFNLESGVPDRFSGSGSGTDFTLTISSLQAEDVAVYYCQQSHEVPYTFGQGTKLEIK
notes: 1F5 HC-4/1F5 LC1-4
Relative binding activity, %: 106%

B8: hu23 (antibody, V domains shown)
VH: QVQLVQSGAEVKKPGASVKVSCKASGYTFTDYNMHWVRQAPGQRLEWMGYIFPYNGVAVYNRKFRSRVTLTVDTSSSTAYMELSSLRSEDTAVYYCAREGLGGYWGQGTLVTVSS
VL: DVQLTQSPSFLSASVGDRVTITCQASQNIDGNTYMNWYQQKPGKAPKVLIYSIFNLESGVPSRFSGSGSGTEFTLTISSLQPEDFATYYCQQSNDYPYTFGQGTKLEIK
notes: 1B2 HC-2/2B8 LC2-2
Relative binding activity, %: 17%

B9: hu52 (antibody, V domains shown)
VH: B8 VH with Y32F, F52Y, V57D, A58V, R62Q, K63N, R65T, S66N
VL: B5 VL
notes: 1F5 HC-2/3H10 LC2-2
Relative binding activity, %: 25%

B10: hu47 (antibody, V domains shown)
VH: B8 VH with Y32F, F52Y, V57D, A58V, R62Q, K63N, R65T, S66N
VL: B7 VL
notes: 1F5 HC-2/1F5 LC1-4
Relative binding activity, %: 10%

B11: hu81 (antibody, V domains shown)
VH: B8 VH with T30I, Y32F, F52Y, G56A, V57D, A58V, R62Q, K63D, R65T, S66N
VL: B2 VL
notes: 1F5 HC-5/1A2 LC2-3
Relative binding activity, %: 96%

B12: hu39 (antibody, V domains shown)
VH: B8 VH with T30I, Y32F, F52Y, V57D, A58V, R62Q, K63N, R65T, S66N
VL: B5 VL
notes: 1F5 HC-1/3H10 LC2-2
Relative binding activity, %: 51%

B13: hu29 (antibody, V domains shown)
VH: B8 VH with T30I, Y32F, F52Y, V57D, A58V, R62Q, K63N, R65T, S66N
VL: B2 VL
notes: 1F5 HC-1/1A2 LC2-3
Relative binding activity, %: 63%

B14: hu21 (antibody, V domains shown)
VH: B8 VH
VL: B7 VL
notes: 1B2 HC-2/1F5 LC1-4
Relative binding activity, %: 33%

B15: hu33 (antibody, V domains shown)
VH: B8 VH with T30I, Y32F, F52Y, V57D, A58V, R62Q, K63N, R65T, S66N
VL: B1 VL with Y31F, L37M, N96H, F98V
notes: 1F5 HC-1/1F5 LC1-3
Relative binding activity, %: 18%

B16: hu26 (antibody, V domains shown)
VH: B8 VH
VL: B5 VL
notes: 1B2 HC-2/3H10 LC2-2
Relative binding activity, %: 20%

B17: hu51 (antibody, V domains shown)
VH: B8 VH with Y32F, F52Y, V57D, A58V, R62Q, K63N, R65T, S66N
VL: B7 VL with F31Y, D32G, A35S, H42Q, H96N, V98A
notes: 1F5 HC-2/3H10 LC2-1
Relative binding activity, %: 83%

B18: hu25 (antibody, V domains shown)
VH: B8 VH
VL: B7 VL with F31Y, D32G, A35S, H42Q, H96N, V98A
notes: 1B2 HC-2/3H10 LC2-1
Relative binding activity, %: 66%

B19: hu75 (antibody, V domains shown)
VH: B1 VH
VL: B8 VL
notes: 1F5 HC-4/2B8 LC2-2
Relative binding activity, %: 84%

B20: hu127 (antibody, V domains shown)
VH: B8 VH with R44G, Y50N, F52Y, V57G, A58T, R62Q, R65N, S66N, S84R, E89D
VL: B8 VL
notes: 2B8 HC1-2/2B8 LC2-2
Relative binding activity, %: 24%

B21: hu62 (antibody, V domains shown)
VH: QVQLVQSGAEVKKPGASVKVSCKASGYTFTDFNMHWVRQAPGQGLEWMGYIYPYNGDVVYNQNFTNRVTLTVDTSSSTAYMELRSLRSDDTAVYYCAREGLGGYWGQGTLVTVSS
VL: B8 VL
notes: 1F5 HC-3/2B8 LC2-2
Relative binding activity, %: 15%

B22: hu205 (antibody, V domains shown)
VH: B21 VH with F32Y, D57H, V58T, N63K, T65R, L70M, R98K
VL: B8 VL
notes: 3H10 HC-1/2B8 LC2-2
Relative binding activity, %: 26%

B23: hu114 (antibody, V domains shown)
VH: B21 VH with F32Y, Y50N, D57G, V58T, N63K, T65N, R84S, S85R
VL: B8 VL
notes: 2B8 HC1-1/2B8 LC2-2
Relative binding activity, %: 41%

B24: hu88 (antibody, V domains shown)
VH: B21 VH with T30I, G44R, G56A, N63D, R84S, D89E
VL: B8 VL
notes: 1F5 HC-5/2B8 LC2-2
Relative binding activity, %: 93%

B25: hu166 (antibody, V domains shown)
VH: B8 VH with F52S, V57G, A58T, V59A, R62Q, R65K, S66F
VL: B8 VL
notes: 3E5 HC-2/2B8 LC2-2
Relative binding activity, %: 19%

B26: hu192 (antibody, V domains shown)
VH: B8 VH with A24T, F52S, G56A, V57G, A58T, V59A, R62Q, R65K, S66F
VL: B8 VL
notes: 3E5 HC-4/2B8 LC2-2
Relative binding activity, %: 15%

B27: hu36 (antibody, V domains shown)
VH: B21 VH with T30I, G44R, R84S, D89E
VL: B8 VL
notes: 1F5 HC-1/2B8 LC2-2
Relative binding activity, %: 40%

B28: hu101 (antibody, V domains shown)
VH: B8 VH with I51V, F52Y, V57G, A58S, V59A, R62Q, R65K
VL: B8 VL
notes: 2A2 HC-1/2B8 LC2-2
Relative binding activity, %: 48%

B29: hu140 (antibody, V domains shown)
VH: B21 VH with F32Y, Y50N, G56A, D57G, V58T, N63K, T65N, R84S, S85R
VL: B8 VL
notes: 2B8 HC1-3/2B8 LC2-2
Relative binding activity, %: 47%

B30: hu153 (antibody, V domains shown)
VH: B8 VH with A24T, F52S, V57G, A58T, V59A, R62Q, R65K, S66F
VL: B8 VL
notes: 3E5 HC-1/2B8 LC2-2
Relative binding activity, %: 56%

B31: hu49 (antibody, V domains shown)
VH: B21 VH with G44R, R84S, D89E
VL: B8 VL
notes: 1F5 HC-2/2B8 LC2-2
Relative binding activity, %: 60%

B32: hu179 (antibody, V domains shown)
VH: QVQLVQSGAEVKKPGASVKVSCKASGYTFTDYNMHWVRQAPGQGLEWMGYISPYNGGTAYNQKFKFRVTLTVDTSSSTAYMELSRLRSDDTVVYYCAREGLGGYWGQGTLVTVSS
VL: B8 VL
notes: 3E5 HC-3/2B8 LC2-2
Relative binding activity, %: 77%
